The source of these data is publication PMC6078998, “Functional activity of the H3.3 histone chaperone complex HIRA requires trimerization of the HIRA subunit” (Nature Communications, 2018).

Series [1] deals with the molecule itself. Description: SEC-MALS; HIRA(644–1017) purified in 500 mM NaCl.
Series [2] concerns the molecule itself. Description: AUC; sedimentation equilibrium of single purified proteins, 4 °C, 280 nm, 2–3 concentrations, multiple speeds; 20 mM Tris pH 8.0, 300 mM NaCl, 1 mM TCEP; Heteroanalysis and SEDPHAT; the constant of HIRA is of a monomer–trimer equilibrium model.
Series [3] addresses T1, CABIN1 full length (FL), recombinant (UniProt Q9Y6J0 1-2220).
T1 construct: theoretical molecular weight printed as 246,352 Da; the discussion says 2200 amino-acid residues; Cloned into pFastBac HTA; No removal of the His tag is described; also called CABIN1 FL; FL His-CABIN1
Description: SEC; Superose 6 10/300 GL fractionation; ~100 μM HIRA fragment incubated with ~20 μM CABIN1 FL in 500 μl, 30 min at 4 °C; 20 mM Tris pH 8.0, 300 mM NaCl, 1 mM TCEP. As to conditions: both partners purified.

T1 sequence (Q9Y6J0 whole entry): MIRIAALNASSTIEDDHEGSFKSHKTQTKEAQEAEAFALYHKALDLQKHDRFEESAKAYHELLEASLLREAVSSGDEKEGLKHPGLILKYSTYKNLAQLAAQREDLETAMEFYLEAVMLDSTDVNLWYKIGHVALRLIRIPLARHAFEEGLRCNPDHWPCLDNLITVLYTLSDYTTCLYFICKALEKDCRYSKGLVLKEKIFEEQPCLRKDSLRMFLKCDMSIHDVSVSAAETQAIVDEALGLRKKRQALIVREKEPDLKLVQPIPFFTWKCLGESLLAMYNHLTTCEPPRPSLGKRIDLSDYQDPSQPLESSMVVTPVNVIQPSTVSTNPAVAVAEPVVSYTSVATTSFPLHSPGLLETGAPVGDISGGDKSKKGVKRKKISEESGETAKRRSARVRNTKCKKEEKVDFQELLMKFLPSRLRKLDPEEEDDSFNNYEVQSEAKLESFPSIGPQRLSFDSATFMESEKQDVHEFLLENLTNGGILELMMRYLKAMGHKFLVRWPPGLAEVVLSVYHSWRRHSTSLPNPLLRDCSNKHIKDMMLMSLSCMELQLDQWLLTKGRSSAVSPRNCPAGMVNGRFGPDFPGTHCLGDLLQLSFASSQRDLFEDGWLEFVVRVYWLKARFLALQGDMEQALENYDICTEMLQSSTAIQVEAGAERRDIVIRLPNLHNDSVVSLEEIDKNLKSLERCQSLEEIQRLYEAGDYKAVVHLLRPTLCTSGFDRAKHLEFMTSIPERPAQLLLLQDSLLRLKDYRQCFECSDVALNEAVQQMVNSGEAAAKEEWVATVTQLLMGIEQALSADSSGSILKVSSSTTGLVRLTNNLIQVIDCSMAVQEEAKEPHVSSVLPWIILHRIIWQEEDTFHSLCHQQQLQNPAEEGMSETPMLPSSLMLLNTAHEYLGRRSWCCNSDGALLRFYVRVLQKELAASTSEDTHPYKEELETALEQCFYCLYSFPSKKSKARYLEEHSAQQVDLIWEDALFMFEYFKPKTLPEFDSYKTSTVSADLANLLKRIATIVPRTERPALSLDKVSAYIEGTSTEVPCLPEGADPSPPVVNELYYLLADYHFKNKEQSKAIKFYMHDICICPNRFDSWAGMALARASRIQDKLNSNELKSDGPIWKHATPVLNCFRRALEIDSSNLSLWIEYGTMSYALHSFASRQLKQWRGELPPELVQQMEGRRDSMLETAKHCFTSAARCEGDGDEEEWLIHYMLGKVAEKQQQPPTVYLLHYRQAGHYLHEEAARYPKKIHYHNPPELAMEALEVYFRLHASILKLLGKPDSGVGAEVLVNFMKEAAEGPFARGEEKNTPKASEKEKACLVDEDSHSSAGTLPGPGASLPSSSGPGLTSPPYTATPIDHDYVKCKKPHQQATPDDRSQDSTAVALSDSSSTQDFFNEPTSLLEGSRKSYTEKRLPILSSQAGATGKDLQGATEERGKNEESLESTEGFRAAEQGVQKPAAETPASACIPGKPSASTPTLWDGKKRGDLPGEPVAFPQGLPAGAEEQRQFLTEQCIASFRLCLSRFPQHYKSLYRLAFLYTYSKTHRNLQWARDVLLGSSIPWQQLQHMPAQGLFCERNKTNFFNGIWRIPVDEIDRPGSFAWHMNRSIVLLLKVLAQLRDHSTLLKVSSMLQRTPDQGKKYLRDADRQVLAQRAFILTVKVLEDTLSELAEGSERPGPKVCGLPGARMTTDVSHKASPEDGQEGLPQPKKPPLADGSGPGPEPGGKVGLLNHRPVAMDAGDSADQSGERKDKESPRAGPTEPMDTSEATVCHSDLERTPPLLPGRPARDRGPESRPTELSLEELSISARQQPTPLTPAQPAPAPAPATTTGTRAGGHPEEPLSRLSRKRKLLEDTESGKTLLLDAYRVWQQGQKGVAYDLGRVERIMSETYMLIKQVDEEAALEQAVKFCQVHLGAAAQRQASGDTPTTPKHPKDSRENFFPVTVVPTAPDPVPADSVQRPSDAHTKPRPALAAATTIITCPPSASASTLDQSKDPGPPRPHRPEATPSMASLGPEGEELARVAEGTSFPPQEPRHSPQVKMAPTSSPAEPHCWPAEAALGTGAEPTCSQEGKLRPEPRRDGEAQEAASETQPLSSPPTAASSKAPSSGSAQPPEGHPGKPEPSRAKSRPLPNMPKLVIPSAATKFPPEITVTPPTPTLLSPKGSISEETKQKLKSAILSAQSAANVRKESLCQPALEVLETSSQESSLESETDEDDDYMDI

B1: HIRA(644–1017) (domain or fragment, human)
chain: GRPRKDSRLMPVSLSVQSPAALTAEKEAMCLSAPALALKLPIPSPQRAFTLQVSSDPSMYIEVENEVTVVGGVKLSRLKCNREGKEWETVLTSRILTAAGSCDVVCVACEKRMLSVFSTCGRRLLSPILLPSPISTLHCTGSYVMALTAAATLSVWDVHRQVVVVKEESLHSILAGSDMTVSQILLTQHGIPVMNLSDGKAYCFNPSLSTWNLVSDKQDSLAQCADFRSSLPSQDAMLCSGPLAIIQGRTSNSGRQAARLFSVPHVVQQETTLAYLENQVAAALTLQSSHEYRHWLLVYARYLVNEGFEYRLREICKDLLGPVHYSTGSQWESTVVGLRKRELLKELLPVIGQNLRFQRLFTECQEQLDILRDKLEGSS
notes: Cloned by NdeI/XhoI into pTXB1 (pYHD1); the forward primer has ATG before the first HIRA codon, so a start methionine may stand in front; A Se-Met labelled form was used for phasing only; Theoretical trimer weight printed as 125,815 Da; source: E. coli BL21(DE3), purified (chitin beads, on-column intein cleavage, Superdex 200); not shown: Intein (chitin beads), C-terminal, cleaved
On to B1, for which, in series [1], the stoichiometry N (commonly a count of units in the complex or per binding partner) worked out at 3.

B2: recombinant human HIRA(661–1017) (domain or fragment, UniProt P54198 661-1017, looked up)
chain: SPAALTAEKEAMCLSAPALALKLPIPSPQRAFTLQVSSDPSMYIEVENEVTVVGGVKLSRLKCNREGKEWETVLTSRILTAAGSCDVVCVACEKRMLSVFSTCGRRLLSPILLPSPISTLHCTGSYVMALTAAATLSVWDVHRQVVVVKEESLHSILAGSDMTVSQILLTQHGIPVMNLSDGKAYCFNPSLSTWNLVSDKQDSLAQCADFRSSLPSQDAMLCSGPLAIIQGRTSNSGRQAARLFSVPHVVQQETTLAYLENQVAAALTLQSSHEYRHWLLVYARYLVNEGFEYRLREICKDLLGPVHYSTGSQWESTVVGLRKRELLKELLPVIGQNLRFQRLFTECQEQLDILRDK
notes: Theoretical molecular weight of the homotrimer printed as 118,710 Da; also called HIRA trimer; not shown: GST, N-terminal, cleaved
As to B2, in series [2], the “stoichiometry N” value was 3. For the same molecule, the binding result in series [3] was “binds”.

B3: recombinant HIRA(661–1017 + FRL870-871-874AAA) (domain or fragment, human, UniProt P54198 661-1017, looked up)
chain: SPAALTAEKEAMCLSAPALALKLPIPSPQRAFTLQVSSDPSMYIEVENEVTVVGGVKLSRLKCNREGKEWETVLTSRILTAAGSCDVVCVACEKRMLSVFSTCGRRLLSPILLPSPISTLHCTGSYVMALTAAATLSVWDVHRQVVVVKEESLHSILAGSDMTVSQILLTQHGIPVMNLSDGKAYCFNPSLSTWNLVSDKQDSLAQCADAASSAPSQDAMLCSGPLAIIQGRTSNSGRQAARLFSVPHVVQQETTLAYLENQVAAALTLQSSHEYRHWLLVYARYLVNEGFEYRLREICKDLLGPVHYSTGSQWESTVVGLRKRELLKELLPVIGQNLRFQRLFTECQEQLDILRDK
notes: not shown: GST, N-terminal, cleaved
As to B3, the binding result in series [3] was “binds”.

B4: recombinant HIRA(661–1017) Δ873–904 (domain or fragment, human, UniProt P54198 661-1017, looked up)
chain: SPAALTAEKEAMCLSAPALALKLPIPSPQRAFTLQVSSDPSMYIEVENEVTVVGGVKLSRLKCNREGKEWETVLTSRILTAAGSCDVVCVACEKRMLSVFSTCGRRLLSPILLPSPISTLHCTGSYVMALTAAATLSVWDVHRQVVVVKEESLHSILAGSDMTVSQILLTQHGIPVMNLSDGKAYCFNPSLSTWNLVSDKQDSLAQCADFRSSVPHVVQQETTLAYLENQVAAALTLQSSHEYRHWLLVYARYLVNEGFEYRLREICKDLLGPVHYSTGSQWESTVVGLRKRELLKELLPVIGQNLRFQRLFTECQEQLDILRDK
notes: also called loop deletion mutant; not shown: GST, N-terminal, cleaved
Take B4: the “stoichiometry N” value in series [2] came to 3. Further, in series [3], the binding result is recorded as “binds”.
